{"source": "paper PMC6325607", "origin": "cited, not measured here", "test_system": "Cys149"}
{"substance": "Cytosolic glyceraldehyde-3-phosphate dehydrogenase (GAPDH) (Arabidopsis thaliana)", "values": [{"measurement": "pKa", "result": 5.65}]}
